Test results published in patent US20220356258A1 (Boehringer Ingelheim, published 2022).

T1: IL-36 receptor (IL-36R) (UniProt Q9HB29 20-335, limits assumed)
T1 sequence (looked up): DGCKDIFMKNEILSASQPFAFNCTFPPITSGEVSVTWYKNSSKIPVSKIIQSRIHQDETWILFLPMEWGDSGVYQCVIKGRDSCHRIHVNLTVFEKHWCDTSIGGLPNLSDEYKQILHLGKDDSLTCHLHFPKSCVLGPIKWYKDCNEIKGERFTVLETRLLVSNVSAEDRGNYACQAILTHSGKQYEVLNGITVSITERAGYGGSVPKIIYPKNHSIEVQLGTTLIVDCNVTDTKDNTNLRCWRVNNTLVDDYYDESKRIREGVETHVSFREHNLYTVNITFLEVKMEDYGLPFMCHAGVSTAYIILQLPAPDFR


Tests used:
IL-36 receptor (IL-36R) [1] = target: T1, IL-36 receptor (IL-36R); experiment: cell-based or functional assay
[2] = target: T2, protein A/G (immobilized on the SPR sensor chip); experiment: SPR, first step: capture on protein A/G immobilized on the sensor chip
T2 construct: Capture protein in the first step of the IL36R SPR assay; also called protein A/G sensor chip

IL-36 receptor (IL-36R) [3] = target: T1, IL-36 receptor (IL-36R); experiment: SPR, second step: IL36R binding activity of the species bound to protein A/G
FcRn = target: T3, FcRn (Homo sapiens (Human), UniProt P55899 24-297; P61769 21-119); experiment: SPR, FcRn binding
T3 construct: In nature it is a heterodimer of the FcRn alpha chain and beta-2-microglobulin; also called neonatal Fc receptor; copies: 1 + 1
T3 sequence (P55899 24-297 limits assumed, form in doubt, chain 1 of 2): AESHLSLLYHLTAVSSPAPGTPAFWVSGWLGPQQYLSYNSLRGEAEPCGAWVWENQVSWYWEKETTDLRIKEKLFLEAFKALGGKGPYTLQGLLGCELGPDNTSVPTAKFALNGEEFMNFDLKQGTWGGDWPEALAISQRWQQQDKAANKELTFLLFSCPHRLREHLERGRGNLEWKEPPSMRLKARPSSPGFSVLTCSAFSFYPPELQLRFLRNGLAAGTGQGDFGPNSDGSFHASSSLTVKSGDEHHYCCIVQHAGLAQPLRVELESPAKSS
T3 sequence (P61769 21-119 limits assumed, form in doubt, chain 2 of 2): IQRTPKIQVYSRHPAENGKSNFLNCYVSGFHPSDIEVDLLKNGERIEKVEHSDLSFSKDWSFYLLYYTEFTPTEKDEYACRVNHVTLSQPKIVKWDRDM

Binder | IL36R bioassay Potency [%] (IL-36 receptor (IL-36R) [1]) | Recovery [%] (amount of species binding to protein A/G) [2] | Potency [%] (IL36R binding, SPR) (IL-36 receptor (IL-36R) [3]) | Binding [%] (FcRn binding, SPR) (FcRn)
Spesolimab AP4 fraction (CEX acidic peak fraction AP4) (antibody, human IgG1, kappa, L234A L235A, Humanized IgG1 anti-IL-36R antibody from CHO-DG44 cells; Cation exchange fraction, RT 16.0-18.7 min, 0.5% of total CEX area; also called most acidic fraction AP4) heavy: not shown light: QIVLTQSPGTLSLSPGERATMTCTASSSVSSSYFHWYQQKPGQAPRLWIYRTSRLASGVPDRFSGSGSGTDFTLTISRLEPEDAATYYCHQFHRSPLTFGAGTKLEIKRTVAAPSVFIFPPSDEQLKSGTASVVCLLNNFYPREAKVQWKVDNALQSGNSQESVTEQDSKDSTYSLSSTLTLSKADYEKHKVYACEVTHQGLSSPVTKSFNRGEC | 60% | 75% | 93% | 69%
Spesolimab AP1c fraction (CEX acidic peak fraction AP1c) (antibody, human IgG1, kappa, L234A L235A, IgG1; Cation exchange fraction, RT 24.1-26.0 min, 2.2% of total CEX area) heavy: not shown light: QIVLTQSPGTLSLSPGERATMTCTASSSVSSSYFHWYQQKPGQAPRLWIYRTSRLASGVPDRFSGSGSGTDFTLTISRLEPEDAATYYCHQFHRSPLTFGAGTKLEIKRTVAAPSVFIFPPSDEQLKSGTASVVCLLNNFYPREAKVQWKVDNALQSGNSQESVTEQDSKDSTYSLSSTLTLSKADYEKHKVYACEVTHQGLSSPVTKSFNRGEC | 102% | 90% | 100% | 90%
Spesolimab AP3a fraction (CEX acidic peak fraction AP3a) (antibody, human IgG1, kappa, L234A L235A, IgG1; Cation exchange fraction, RT 20.6-22.7 min, 2.8% of total CEX area) heavy: not shown light: QIVLTQSPGTLSLSPGERATMTCTASSSVSSSYFHWYQQKPGQAPRLWIYRTSRLASGVPDRFSGSGSGTDFTLTISRLEPEDAATYYCHQFHRSPLTFGAGTKLEIKRTVAAPSVFIFPPSDEQLKSGTASVVCLLNNFYPREAKVQWKVDNALQSGNSQESVTEQDSKDSTYSLSSTLTLSKADYEKHKVYACEVTHQGLSSPVTKSFNRGEC | 91% | 88% | 98% | 88%
Spesolimab AP2 fraction (CEX acidic peak fraction AP2) (antibody, human IgG1, kappa, L234A L235A, IgG1; Cation exchange fraction, RT 22.7-24.1 min, 2.4% of total CEX area) heavy: not shown light: QIVLTQSPGTLSLSPGERATMTCTASSSVSSSYFHWYQQKPGQAPRLWIYRTSRLASGVPDRFSGSGSGTDFTLTISRLEPEDAATYYCHQFHRSPLTFGAGTKLEIKRTVAAPSVFIFPPSDEQLKSGTASVVCLLNNFYPREAKVQWKVDNALQSGNSQESVTEQDSKDSTYSLSSTLTLSKADYEKHKVYACEVTHQGLSSPVTKSFNRGEC | 94% | 90% | 99% | –
Spesolimab MP fraction (CEX main peak fraction) (antibody, human IgG1, kappa, L234A L235A, IgG1) heavy: not shown light: QIVLTQSPGTLSLSPGERATMTCTASSSVSSSYFHWYQQKPGQAPRLWIYRTSRLASGVPDRFSGSGSGTDFTLTISRLEPEDAATYYCHQFHRSPLTFGAGTKLEIKRTVAAPSVFIFPPSDEQLKSGTASVVCLLNNFYPREAKVQWKVDNALQSGNSQESVTEQDSKDSTYSLSSTLTLSKADYEKHKVYACEVTHQGLSSPVTKSFNRGEC | 110% | 95% | 102% | 95%
Spesolimab BP1 fraction (CEX basic peak fraction BP1) (antibody, human IgG1, kappa, L234A L235A, IgG1; Cation exchange fraction, RT 30.2-31.7 min, 3.75% of total CEX area) heavy: not shown light: QIVLTQSPGTLSLSPGERATMTCTASSSVSSSYFHWYQQKPGQAPRLWIYRTSRLASGVPDRFSGSGSGTDFTLTISRLEPEDAATYYCHQFHRSPLTFGAGTKLEIKRTVAAPSVFIFPPSDEQLKSGTASVVCLLNNFYPREAKVQWKVDNALQSGNSQESVTEQDSKDSTYSLSSTLTLSKADYEKHKVYACEVTHQGLSSPVTKSFNRGEC | 97% | 93% | 100% | 95%
Spesolimab BP3 fraction (CEX basic peak fraction BP3) (antibody, human IgG1, kappa, L234A L235A, IgG1; Cation exchange fraction, RT 33.5-36.2 min, 1.3% of total CEX area; also called most basic fraction BP3) heavy: not shown light: QIVLTQSPGTLSLSPGERATMTCTASSSVSSSYFHWYQQKPGQAPRLWIYRTSRLASGVPDRFSGSGSGTDFTLTISRLEPEDAATYYCHQFHRSPLTFGAGTKLEIKRTVAAPSVFIFPPSDEQLKSGTASVVCLLNNFYPREAKVQWKVDNALQSGNSQESVTEQDSKDSTYSLSSTLTLSKADYEKHKVYACEVTHQGLSSPVTKSFNRGEC | – | 70% | 100% | –
Spesolimab BP2 fraction (CEX basic peak fraction BP2) (antibody, human IgG1, kappa, L234A L235A, IgG1; Cation exchange fraction, RT 31.7-33.5 min, 2.4% of total CEX area) heavy: not shown light: QIVLTQSPGTLSLSPGERATMTCTASSSVSSSYFHWYQQKPGQAPRLWIYRTSRLASGVPDRFSGSGSGTDFTLTISRLEPEDAATYYCHQFHRSPLTFGAGTKLEIKRTVAAPSVFIFPPSDEQLKSGTASVVCLLNNFYPREAKVQWKVDNALQSGNSQESVTEQDSKDSTYSLSSTLTLSKADYEKHKVYACEVTHQGLSSPVTKSFNRGEC | 97% | 84% | 100% | 91%
Spesolimab CMC2 source (Drug Substance source material, unfractionated) (antibody, human IgG1, kappa, L234A L235A, Humanized monoclonal IgG1 anti-IL-36R antibody, CAS 2097104-58-8, produced in CHO-DG44 cells; This is the unfractionated material from which the CEX fractions were collected) heavy: not shown light: QIVLTQSPGTLSLSPGERATMTCTASSSVSSSYFHWYQQKPGQAPRLWIYRTSRLASGVPDRFSGSGSGTDFTLTISRLEPEDAATYYCHQFHRSPLTFGAGTKLEIKRTVAAPSVFIFPPSDEQLKSGTASVVCLLNNFYPREAKVQWKVDNALQSGNSQESVTEQDSKDSTYSLSSTLTLSKADYEKHKVYACEVTHQGLSSPVTKSFNRGEC | 91% | 93% | 101% | 94%
Spesolimab AP3b fraction (CEX acidic peak fraction AP3b) (antibody, human IgG1, kappa, L234A L235A, IgG1; Cation exchange fraction, RT 18.7-20.6 min, 0.8% of total CEX area) heavy: not shown light: QIVLTQSPGTLSLSPGERATMTCTASSSVSSSYFHWYQQKPGQAPRLWIYRTSRLASGVPDRFSGSGSGTDFTLTISRLEPEDAATYYCHQFHRSPLTFGAGTKLEIKRTVAAPSVFIFPPSDEQLKSGTASVVCLLNNFYPREAKVQWKVDNALQSGNSQESVTEQDSKDSTYSLSSTLTLSKADYEKHKVYACEVTHQGLSSPVTKSFNRGEC | 80% | 87% | 93% | 84%
Spesolimab AP1a fraction (CEX acidic peak fraction AP1a) (antibody, human IgG1, kappa, L234A L235A, IgG1; Cation exchange fraction, RT 27.3-28.2 min, 13.6% of total CEX area) heavy: not shown light: QIVLTQSPGTLSLSPGERATMTCTASSSVSSSYFHWYQQKPGQAPRLWIYRTSRLASGVPDRFSGSGSGTDFTLTISRLEPEDAATYYCHQFHRSPLTFGAGTKLEIKRTVAAPSVFIFPPSDEQLKSGTASVVCLLNNFYPREAKVQWKVDNALQSGNSQESVTEQDSKDSTYSLSSTLTLSKADYEKHKVYACEVTHQGLSSPVTKSFNRGEC | 102% | 93% | 99% | 92%
Spesolimab AP1b fraction (CEX acidic peak fraction AP1b) (antibody, human IgG1, kappa, L234A L235A, IgG1; Cation exchange fraction, RT 26.0-27.3 min, 7.6% of total CEX area) heavy: not shown light: QIVLTQSPGTLSLSPGERATMTCTASSSVSSSYFHWYQQKPGQAPRLWIYRTSRLASGVPDRFSGSGSGTDFTLTISRLEPEDAATYYCHQFHRSPLTFGAGTKLEIKRTVAAPSVFIFPPSDEQLKSGTASVVCLLNNFYPREAKVQWKVDNALQSGNSQESVTEQDSKDSTYSLSSTLTLSKADYEKHKVYACEVTHQGLSSPVTKSFNRGEC | 99% | 92% | 100% | 89%
